The source of these data is patent publication US20250154279A1 (BEIGENE, published 2025).

Assay [1] concerns the target T1, human CD137 ECD-mIgG2a (human).
T1 construct: also called huCD137
Description: antigen ELISA, coated huCD137-mIgG2a, detection with HRP anti-human IgG, single antibody concentration not given; competitor where added: 20 ug/ml CD137L. On the procedure: (§1) For antigen ELISA, a Maxisorp immunoplate was coated with antigens and blocked with 3% BSA (w/v) in PBS buffer (blocking buffer). Monoclonal VHH antibodies were blocked with blocking buffer for 30 minutes and added to wells of the ELISA plate for 1 hour. After washes with PBST, bound antibodies were detected using HRP-conjugated anti-human IgG antibody (Sigma, A0170) and 3,3′,5,5′-tetramethylbenzidine substrate (Cat.: 00-4201-56, eBioscience, USA). Ligand competition was also applied in a ELISA assay.

Assay [2] addresses T2, mouse CD137 (mouse, UniProt P20334 24-187, limits assumed).
T2 construct: Coated antigen in ELISA; construct not described
T2 sequence (looked up): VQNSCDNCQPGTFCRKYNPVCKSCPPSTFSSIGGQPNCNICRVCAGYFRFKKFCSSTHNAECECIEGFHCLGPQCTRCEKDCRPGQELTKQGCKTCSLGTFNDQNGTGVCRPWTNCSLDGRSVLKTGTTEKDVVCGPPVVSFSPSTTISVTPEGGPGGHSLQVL
The experiment in a line: antigen ELISA. Here is the method:
as §1

Assay [3] deals with T3, huCD137-his.
T3 construct: The sheet prints only 'huCD137-his'; also called human CD137-ECD-his
T3 extracellular domain with C-terminal His tag: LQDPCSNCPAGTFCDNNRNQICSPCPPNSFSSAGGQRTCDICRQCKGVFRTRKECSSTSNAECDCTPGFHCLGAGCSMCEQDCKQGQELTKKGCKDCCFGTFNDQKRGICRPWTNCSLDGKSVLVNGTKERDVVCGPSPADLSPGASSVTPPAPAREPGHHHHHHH
The experiment in a line: antigen ELISA, coated huCD137-his, detection with HRP anti-human IgG, single antibody concentration not given; competitor where added: 20 ug/ml CD137L. On the procedure: as §1

Assay [4] has as its target T4, human CD137 over-expressed on HuT78 cells (HuT78/CD137) (human, UniProt Q07011 24-255).
T4 construct: also called Hut78/huCD137; native CD137
Description: flow cytometry on HuT78/CD137 cells, detection anti-hFc 647, no CD137L added.

In assay [5] the target is T5, human GPC3 expressed on HepG2 cells (human, UniProt P51654 25-554).
T5 construct: also called native huGPC3; native GPC3
T5 sequence (P51654 25-554 limits assumed): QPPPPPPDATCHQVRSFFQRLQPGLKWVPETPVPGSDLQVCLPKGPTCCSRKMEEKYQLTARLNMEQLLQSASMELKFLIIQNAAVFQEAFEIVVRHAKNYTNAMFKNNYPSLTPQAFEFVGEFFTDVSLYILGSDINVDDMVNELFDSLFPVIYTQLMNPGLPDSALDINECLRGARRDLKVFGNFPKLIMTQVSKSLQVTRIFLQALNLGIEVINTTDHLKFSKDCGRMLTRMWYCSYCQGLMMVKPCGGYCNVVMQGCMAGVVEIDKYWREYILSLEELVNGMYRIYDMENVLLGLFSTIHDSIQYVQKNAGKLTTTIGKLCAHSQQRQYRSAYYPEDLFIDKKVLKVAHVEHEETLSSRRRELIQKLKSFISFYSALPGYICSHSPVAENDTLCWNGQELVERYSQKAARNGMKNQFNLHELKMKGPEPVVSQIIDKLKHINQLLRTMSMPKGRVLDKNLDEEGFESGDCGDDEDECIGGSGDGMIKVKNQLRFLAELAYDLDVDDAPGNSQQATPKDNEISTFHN
Description: FACS on HepG2 cells.

The target of assay [6] is T6, cynomolgus monkey CD137 ECD (cynomolgus monkey).
T6 construct: also called Cyno CD137; Cyno CD137 ECD
T6 chain: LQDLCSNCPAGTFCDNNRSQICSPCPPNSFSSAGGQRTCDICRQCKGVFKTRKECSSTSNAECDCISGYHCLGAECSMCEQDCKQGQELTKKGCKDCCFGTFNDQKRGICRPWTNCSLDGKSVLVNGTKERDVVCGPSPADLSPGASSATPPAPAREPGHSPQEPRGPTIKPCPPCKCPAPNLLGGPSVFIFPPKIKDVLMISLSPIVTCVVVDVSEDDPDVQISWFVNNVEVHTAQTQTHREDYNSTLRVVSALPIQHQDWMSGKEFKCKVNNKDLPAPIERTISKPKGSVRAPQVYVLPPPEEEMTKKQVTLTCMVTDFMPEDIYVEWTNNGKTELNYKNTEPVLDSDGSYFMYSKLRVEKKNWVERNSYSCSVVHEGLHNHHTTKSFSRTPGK
Description: SPR. Here is the method:
(§2) The binding kinetics of the antibodies were measured using surface plasmon resonance (SPR). SPR was used to measure the on-rate constant (Kₐ) and off-rate constant (Kd) of the antibodies to recombinant proteins of CD137 and GPC3 and then determined the affinity constant (KD).

Assay [7] has as its target T7, cynomolgus monkey GPC3 (Cat.: GP3-C5225, Acrobio, CHINA) (cynomolgus monkey, UniProt A0A2K5VK50 24-558).
T7 construct: also called Cyno GPC3
Description: SPR. Here is the method: as §2

Assay [8] addresses T8, human CD137 (Cat.: 41B-H5256, Acrobio, CHINA) (human, UniProt Q07011 24-186).
T8 construct: Bought protein
Description: SPR. On the procedure: as §2

The target of assay [9] is T9, human GPC3 (Cat.: 10088-H08H, Sino Biological, CHINA) (human, UniProt P51654 25-559).
T9 construct: Bought protein
T9 sequence (P51654 25-559 limits assumed): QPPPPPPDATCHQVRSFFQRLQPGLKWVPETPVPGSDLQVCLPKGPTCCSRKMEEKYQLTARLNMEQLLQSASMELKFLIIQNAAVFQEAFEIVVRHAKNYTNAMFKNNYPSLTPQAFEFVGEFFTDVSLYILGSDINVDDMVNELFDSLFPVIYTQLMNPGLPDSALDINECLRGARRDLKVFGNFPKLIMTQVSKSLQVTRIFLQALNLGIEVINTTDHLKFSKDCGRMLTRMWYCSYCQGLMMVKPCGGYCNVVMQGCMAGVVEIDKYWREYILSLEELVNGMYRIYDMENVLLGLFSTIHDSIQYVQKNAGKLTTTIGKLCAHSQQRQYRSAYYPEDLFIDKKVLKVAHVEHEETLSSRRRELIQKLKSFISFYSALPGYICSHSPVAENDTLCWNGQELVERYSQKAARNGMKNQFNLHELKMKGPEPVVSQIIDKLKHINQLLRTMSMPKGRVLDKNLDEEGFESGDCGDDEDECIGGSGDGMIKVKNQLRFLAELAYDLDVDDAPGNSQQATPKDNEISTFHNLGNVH
The experiment in a line: SPR. On the procedure: as §2

Assay [10] has as its target T4, human CD137 over-expressed on HuT78 …. Description: FACS on HuT78/CD137 cells.

T4 sequence (Q07011 24-255 limits assumed): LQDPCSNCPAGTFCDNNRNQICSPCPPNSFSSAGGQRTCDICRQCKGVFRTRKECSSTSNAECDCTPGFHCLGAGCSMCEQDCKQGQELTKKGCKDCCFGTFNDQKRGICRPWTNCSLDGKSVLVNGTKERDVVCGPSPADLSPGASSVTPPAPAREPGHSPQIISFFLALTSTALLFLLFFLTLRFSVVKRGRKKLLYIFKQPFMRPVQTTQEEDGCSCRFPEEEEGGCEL

B1: BGA-9612 VHH-Fc (camelid anti-huCD137 VHH fused at the N terminal of human IgG1 Fc-null with a G4S linker) (VHH)
VHH: QVQLVESGGGTVQPGDSLRLSCAASGRTFDNYAVGWFRQAPGKERQYVGTYWSGYAHYGDFENNRFTISRDNAKNTVYLQMDNLKPEDTAVYYCAISLKYPMATVTPDYQGQGTQVTVSS
With B1, the binding result in [1] is given as “binds”; in [2], “no binding”; in assay [3], “binds”.

B2: BE-915 (anti-GPC3 x CD137 bispecific antibody, GPC3 antibody + VHH BGA-2524, IgG1mf Fc-YTE) (bispecific antibody)
heavy: QVQLVQSGAEVKKPGASVKVSCKASGYTFTDYEMHWVRQAPGQGLEWMGALDPKTGDTAYSQKFKGRVTLTADKSTSTAYMELSSLTSEDTAVYYCTRFYSYTYWGQGTLVTVSSASTKGPSVFPLAPSSKSTSGGTAALGCLVKDYFPEPVTVSWNSGALTSGVHTFPAVLQSSGLYSLSSVVTVPSSSLGTQTYICNVNHKPSNTKVDKKVEPKSCDKTHTCPPCPAPPAAGPSVFLFPPKPKDTLYITREPEVTCVVVDVSHEDPEVKFNWYVDGVEVHNAKTKPREEQYNSTYRVVSVLTVLHQDWLNGKEYKCKVSNKALAAPIEKTISKAKGQPREPQVYTLPPSREEMTKNQVSLTCLVKGFYPSDIAVEWESNGQPENNYKTTPPVLDSDGSFFLYSKLTVDKSRWQQGNVFSCSVMHEALHNHYTQKSLSLSPGKGGGGSEVQLVESGGGLVQPGGSLRLSCAASGRTFDNYAVGWFRQAPGKEREYVGTYWSGYAHYGDFENNRFTISRDNAKNTVYLQMNNLRPEDTAVYYCAISLKYPMATVTPDYQGQGTQVTVSS
light: DVVMTQSPLSLPVTPGEPASISCRSSQSLVHSNRNTYLHWYLQKPGQSPQLLIYKVSNRFSGVPDRFSGSGSGTDFTLKISRVEAEDVGVYYCSQNTHVPPTFGQGTKLEIKRTVAAPSVFIFPPSDEQLKSGTASVVCLLNNFYPREAKVQWKVDNALQSGNSQESVTEQDSKDSTYSLSSTLTLSKADYEKHKVYACEVTHQGLSSPVTKSFNRGEC
Turning to B2, the “EC50 (read off the curve)” value in assay [4] is roughly 0.1 µg/mL. The EC50 in assay [5] amounted to 1.09 nM; in assay [10] it was 0.69 nM. Also, the Kd stood at 4.4 nM in [6], 0.53 nM in assay [7], 3.6 nM in assay [8] and 2.4 nM in [9]. In addition, the koff stood at 0.00055 s⁻¹ in [6], 0.00011 s⁻¹ in assay [7], 0.00042 s⁻¹ in assay [8] and 0.00014 s⁻¹ in [9]. Further, the on-rate (kon) came to 130000 M⁻¹ s⁻¹ in [6], 210000 M⁻¹ s⁻¹ in assay [7], 120000 M⁻¹ s⁻¹ in assay [8] and 58000 M⁻¹ s⁻¹ in assay [9].
